In this assay the target is ErbB3 receptor on cancer cells (human (endogenous in MCF-7, SK-BR-3, BT-474, Hep G2)) (UniProt P21860).
ErbB3 receptor on cancer cells (human (endogenous in MCF-7, SK-BR-3, BT-474, Hep G2)), sequence (P21860 20-1342): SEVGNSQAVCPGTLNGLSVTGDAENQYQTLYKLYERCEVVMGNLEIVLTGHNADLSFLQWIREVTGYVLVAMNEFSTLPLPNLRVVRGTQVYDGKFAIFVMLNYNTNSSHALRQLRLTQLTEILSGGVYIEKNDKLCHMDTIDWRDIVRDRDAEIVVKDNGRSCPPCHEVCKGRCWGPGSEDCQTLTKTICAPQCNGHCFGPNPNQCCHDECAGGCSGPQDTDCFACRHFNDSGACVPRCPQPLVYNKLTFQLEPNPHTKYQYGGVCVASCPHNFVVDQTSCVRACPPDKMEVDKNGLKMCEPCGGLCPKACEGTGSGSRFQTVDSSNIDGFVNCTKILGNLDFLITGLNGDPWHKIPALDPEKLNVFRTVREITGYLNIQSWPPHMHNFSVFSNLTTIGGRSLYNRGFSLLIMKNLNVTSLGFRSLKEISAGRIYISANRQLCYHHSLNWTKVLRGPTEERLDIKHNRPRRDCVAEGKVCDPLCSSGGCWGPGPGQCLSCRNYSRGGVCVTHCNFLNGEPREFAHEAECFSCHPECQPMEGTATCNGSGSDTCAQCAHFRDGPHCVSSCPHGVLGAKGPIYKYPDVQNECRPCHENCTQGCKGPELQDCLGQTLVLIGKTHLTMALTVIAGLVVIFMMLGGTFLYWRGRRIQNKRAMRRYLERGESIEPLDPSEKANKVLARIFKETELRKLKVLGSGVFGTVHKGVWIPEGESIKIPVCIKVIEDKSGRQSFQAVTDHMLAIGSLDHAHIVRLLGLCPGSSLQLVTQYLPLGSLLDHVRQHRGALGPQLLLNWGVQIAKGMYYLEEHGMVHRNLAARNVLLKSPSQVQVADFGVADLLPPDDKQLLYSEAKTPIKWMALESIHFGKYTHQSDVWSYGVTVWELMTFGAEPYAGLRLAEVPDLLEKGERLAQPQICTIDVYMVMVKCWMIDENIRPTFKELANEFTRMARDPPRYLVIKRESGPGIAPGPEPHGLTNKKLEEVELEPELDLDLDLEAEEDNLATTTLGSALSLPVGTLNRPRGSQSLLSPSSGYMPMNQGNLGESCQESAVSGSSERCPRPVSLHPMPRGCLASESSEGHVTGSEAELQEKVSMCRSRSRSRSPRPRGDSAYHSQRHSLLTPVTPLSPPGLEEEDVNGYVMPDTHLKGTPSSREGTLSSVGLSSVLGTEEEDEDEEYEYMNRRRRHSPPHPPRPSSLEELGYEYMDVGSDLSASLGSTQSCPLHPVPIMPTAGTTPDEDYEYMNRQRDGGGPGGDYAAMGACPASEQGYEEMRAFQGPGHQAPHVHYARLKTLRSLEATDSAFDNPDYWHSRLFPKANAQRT

B1: BCD090-P1 (VHH)
VHH: EVQLVQSGGGLVQPGGSLRLSCAASGRTSSKYAMGWFRQAPGKGTEFVATISWSDGSTYYADSVEGRFTISRDNAKNTVYLQMNSLKPEDTAVYYCAAAVDVLAGTFEYEYDYWGQGTLVTVSS
Consider B1, for which the EC50 of inhibition of heregulin-driven proliferation of MCF-7 cells (MTS, 5 days, 50 ng/mL heregulin-1β) turned out to be 0.1 µg/mL and the EC50 of inhibition of proliferation of SK-BR-3 cells (MTS, 5 days, 50 ng/mL heregulin-1β) was 15 µg/mL.

B2: BCD090-M2 (VHH)
VHH: QVQLVQSGGGLVQAGGSLRLSCAFSGRTFSMYTMGWFRQAPGKEREFVAANRGRGLSPDIADSVNGRFTISRDNAKNTLYLQMDSLKPEDTAVYYCAADLQYGSSWPQRSSAEYDYWGQGTTVTVSS
For B2, the EC50 of inhibition of heregulin-driven proliferation of MCF-7 cells (MTS, 5 days, 50 ng/mL heregulin-1β); blocks heregulin binding to ErbB3 stood at 25 µg/mL and the EC50 of inhibition of proliferation of SK-BR-3 cells (MTS, 5 days, 50 ng/mL heregulin-1β); blocks heregulin binding to ErbB3 turned out to be 3 µg/mL.

Values taken from PMC8467012.
